This is an account of results in patent US20220356229A1 (published 2022).

Numbering of substitutions follows the chain as printed.

B1: anti-SARS-CoV-2 antibody 1015 (antibody, V domains shown)
VH: EVQLVESGGGLVQPGGSLRLSCAASGFTFSSYWMHWVRQAPGKGLVWVSHINSDGSSTSYADSVKGRFTISRDNAKNTLYLQMNSLRAEDTAVYYCARGLRYFDLDVWGQGTTVTVSS
VL: QSVLTQPPSVSEAPRQRVTISCSGSSSNIGNNAVNWYQQLPGKAPKLLIFYDDLLPSGVSDRFSGSKSGTSASLAISGLQSEDEADYYCAAWDDSLNGGVFGGGTKLTVLG
B2: anti-SARS-CoV-2 antibody 923 (antibody, V domains shown)
VH: EVQLVESGGGVVRPGGSLRLSCAASGFIFDDYDMTWVRQAPGKGLEWVSGISWNGGNTGYADSVKGRFTISRDNAKNSLYLQMNSLRAEDTALYHCAVIMSPIPRYSGYDWAGGAFDIWGQGTMVTVSS
VL: SSELTQDPAVSVALGQTVRITCQGDSLRSYYASWYQQKPGQVPILVIYDKNNRPSGIPDRFSGSSSGNTASLTITGAQAEDEADYYCNSRDSSGNAVVFGGGTKLTVLG
B3: anti-SARS-CoV-2 antibody 555 (antibody, V domains shown)
VH: QVQLVQSGAEVKKPGSSVKVSCKASGGTFSNYAISWVRQAPGQGLEWMGRIIPILGIANYAQKFQGRVTITADKSTSTAYMELSSLRSEDTAVYYCARGYYEARHYYYYYAMDVWGQGTAVTVSS
VL: not shown
B4: anti-SARS-CoV-2 antibody 1037 (antibody, V domains shown)
VH: QITLKESGPTLVKPTQTLTLTCTFSGFSLSTSGVGVGWIRQPPGKALEWLALIYWDDDKRYSPSLKSRLTITKDTSKNQVVLTMTNMDPVDTATYYCAHHTITRINDYWGQGTLVTVSS
VL: QSALTQPASVSGSPGQSITISCTATSSDVGAYNYVSWYQQHPGKAPKLMIYDVSKRPSGVSNRFSGSKSGNTASLTISGLQAEDEADYYCSSYTSSSTVFGGGTKLTVLG
B5: antibody 571 (antibody, V domains shown)
VH: EVQLVESGGGLVQPGGSLRLSCAASGFTFSTYWMTWVRQAPGKGLEWVANIKHDGSGKYHVDSVKGRFTISRDNAKNSLYLQMNSLRAEDTAVYYCTRDEGGWYDYWGQGTLVTVSS
VL: QSALTQPASVSGSPGQSITISCTGTSSDVGSYNPVSWYQQHPGKAPKVMIYEGSKRPSGVSNRFSGSKSGNTASLTISGLQAEDEADYYCCSYARSSTFVVFGGGTKLTVL
B6: antibody 564 (antibody, V domains shown)
VH: QVHLVESGGGVVQPGKSLRLSCAASGFIFSSFGMHWVRQPPGKGLEWLAVVSYDGSVTKYSDSFEGRFTISRDNSKNTLYLQMDSLRPEDTAVYYCAKGQGTNLLHYWGQGILVTVSS
VL: DVVLSQSPLSLPVTLGQPASISCRSSESLVYTDGDTYLHWFHQRPGQSPRRLIFKVSHRESGVPDRISGSGSGTDFTLKISRVEAEDVGVYYCMQGTHWPFTFGPGTKVDIK
B7: antibody 566 (antibody, V domains shown)
VH: QVQLVQSGAEVKKPGASVKVSCKASGYTFTSYAMHWVRQAPGQRLEWMGWINAGNGNTKYSQKFQGRVTITRDTSASTAYMELSSLRSEDTAVYYCARDLGVAVTLHPADFDYWGQGTLVTVSS
VL: QSVLTQPPSVSGAPGQRVTISCTGSSSNIGAGYDVHWYQQLPGTAPKLLIYDNSNRPSGVPDRFSGSKSGTSASLAITGLQAEDEADYYCQSYDSSLSAVVFGGGTKLTVL
B8: antibody 560 (antibody, V domains shown)
VH: EVQLVESGGGLVQPGGSLRLSCAASGFTISSNYMSWVRQAPGKGLEWVSVIYSGGSTYYADSVKGRFTISRDNSKNTLYLQMNSLRAEDTAVYYCAREEGEWEKDYYGMDVWGQGTTVTVSS
VL: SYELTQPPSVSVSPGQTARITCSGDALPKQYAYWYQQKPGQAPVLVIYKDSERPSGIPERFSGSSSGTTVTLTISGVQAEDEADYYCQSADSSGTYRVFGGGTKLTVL
B9: antibody 563 (antibody, V domains shown)
VH: QVQLVESGGGVVQPGRSLRLSCAASGFTFSSYAMHWVRQAPGKGLEWVAVISDDGSNKYYADSVKGRFTISRDNSKNTLYLQMNSLRAEDTAVYYCARDIVATIRRLFDYWGQGTLVTVSS
VL: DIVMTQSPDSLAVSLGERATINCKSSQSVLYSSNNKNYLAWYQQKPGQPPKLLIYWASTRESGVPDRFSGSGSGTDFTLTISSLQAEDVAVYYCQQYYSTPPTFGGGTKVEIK
B10: antibody 569 (antibody, V domains shown)
VH: QVQLVESGGGVVQPGRSLRLSCAASGFTFSSYAMHWVRQAPGKGLEWVAVISYDGSNKYYADSVKGRFTISRDNSKNTLYLQMNSLRAEDTAVYYCARASSGGYQGPFDPWGQGTLVTVSS
VL: EIVLTQSPATLSLSPGERATLSCRASQSVSSYLAWYQQKPGQAPRLLIYDASNRATGIPARFSGSGSGTDFTLTISSLEPEDFAVYYCQQRSSPFGPGTKVDIK
B11: antibody 576 (antibody, V domains shown)
VH: B10 VH with R98K, S100G, S101G, G103S, Q105Y, G106R, P107G, P110Y
VL: DIQLTQSPSFLSASVGDRVTITCRASQGISSYLAWYQQKPGKAPKLLIYAASTLQSGVPSRFSGSGSGTEFTLTISSLQPEDFATYYCQQLNSYPTFGPGTKVDIK
B12: antibody 446 (antibody, V domains shown)
VH: B10 VH with A99P, S100N, G103S, Q105F, P107Y, D109Q, P110H
VL: QSVLTQPPSVSGAPGQRVTISCTGSSSNIGAGYDVHWYQQLPGTAPKLLIYGNSNRPSGVPDRFSGSKSGTSASLAITGLQAEDEADYYCQSYDSSLSGFYVFGTGTKVTVL
B13: antibody 454 (antibody, V domains shown)
VH: QVQLVQSGAEVKKPGASLKVSCKASGYIFTGYYMHWVRQAPGQGLEWMGWISPNSGGTKYAQKFQGRVTMTRDTSISTAYMELSRLRSDDSAVYYCAREPYYDILTGYYTPRRYLDYWGQGTLVTVSS
VL: QSALTQPASVSGSPGQSITISCTGTSSDVGDYNYVSWYQQHPGKVPKLMIYDVSHRPSGVTNRFSGSKSGNTASLTISGLRAEDEADYYCSSYTSSSTYVFGTGTKVTVL
B14: antibody 422 (antibody, V domains shown)
VH: QVQLVQSGSELKKPGASVKVSCKASGYTFTSYAMNWVRQAPGQGLEWMGWINTNTGNPTYAQGFTGRFVFSLDTSVSTTYLQISSLKAEDTAVYYCARVIGVVTYYYYGMDVWGQGTTVTVSS
VL: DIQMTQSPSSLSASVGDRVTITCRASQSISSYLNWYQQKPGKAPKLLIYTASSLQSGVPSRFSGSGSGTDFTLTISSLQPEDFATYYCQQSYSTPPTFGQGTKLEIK
B15: antibody 423 (antibody, V domains shown)
VH: EVQLVESGGGLIQPGGSLRISCAASGFTVRNNHMSWVRQAPGKGLEWVSVFYRGGTTYYADSVKGRFTISRDDSKNTVDLQMNSLRGEDTAVYYCARGLSVAASGYFDCWGQGTLVTVSS
VL: DIQMTQSPSSVSASVGDTVTITCRANQGISSWLAWYQQVPGKAPELLIYATSTLQSGVPSRFSGSGSGTDFTLTISSLQPEDFATYYCQQANSFPFTFGPGTKVDIK
B16: antibody 421 (antibody, V domains shown)
VH: QVQLVESGGGVVQPGRSLRLSCAASGFTFSTYAMHWVRQAPGKGLEWVAVISYDGSNKYYADSVKGRFTISRDNSKNTLYLQMNSLRAEDTAVYYCARGYGSGSYYPLYLYWGQGTLVTVSS
VL: not shown
B17: antibody 431 (antibody, V domains shown)
VH: B10 VH with V48L, A99S, S100F, S101R, Q105Y, G106Y, P107G, F108M, P110V, L116T
VL: DIQLTQSPSFLSASVGDRVTITCRASQGISSYLAWYQQKPGKAPKLLIYAASTLQSGVPSRFSGSGSGTEFTLTISSLQPEDFATYYCQQLNSYPLFTFGPGTKVDIK
B18: antibody 439 (antibody, V domains shown)
VH: B10 VH with A99P, S100P, S101R, Y104S, Q105Y, G106Y
VL: not shown
B19: anti-SARS-CoV-2 antibody 989 (antibody, V domains shown)
VH: QVQLVQSGAEVKKPGASVKVSCKASGYTFTNYYMHWVRQAPGQGLEWMGIINPSDDNTTYAQKIQGRVIMTRDTSTSTVYMELSSLRSEDTAVYYCARAFAEWELLLDYWGQGTLVTVSS
VL: not shown
B20: anti-SARS-CoV-2 antibody 1081 (antibody, V domains shown)
VH: QITLKESGPTLVKPTQTLTLTCTFSGFSLSTSRVGVGWIRQPPGKALEWLALIYWNDGKLYSPSLKSRLTITKDTSKNQVVLTLTNMDSVDTATYFCARGQTGTPLYDAFDFWGRGTMVTVSS
VL: SYVLTQPPSVSVAPGKTAGITCGGDNFETKSVSWYQHKPGQAPVLVVYGNANRPSGIPERFSASKSGNTATLTISRVEAGDEADYYCQVWDSRSFHYVVFGGGTKLTVL
B21: anti-SARS-CoV-2 antibody 1000 (antibody, V domains shown)
VH: EVQLVQSGAEVKKPGESLKISCKASGYSFTIYWIGWVRQMPGKGLEWMGVIYPGDSDTRYSPSFQGQVTISADKSISTAYLQWSSLKASDTAMYYCALGYHSGSYPFNWFDPWGQGTLVTVSS
VL: EIVMTQSPATLSVSPGERATLSCRASQSVSSNLAWYQQKPGQTPRLLIYGASTRATGIPARFSGSGSGTEFTLTISSLQSEDFAVYYCQQYDNLLTFGGGTKVEIK
B22: anti-SARS-CoV-2 antibody 1091 (antibody, V domains shown)
VH: QVQLVESGGGVVQPGRSLRLSCAASGFTFSNYAMHWVRQAPGKGLEWVAVISYDGSNKYYADSVKGRFTISRDNSKNTLYLQMNSLRAEDTAVYYCARDKLLWFGELLFDMDVWGKGTTVTVSS
VL: DIQMTQSPSSLSASVGDRVTITCRASQGISNYLAWFQQKPGKAPKSLIYDASSLQSGVPSKFSGSGSGTDFTLTISSLQPEDFATYYCQQYNSYPPSFGPGTKVDIK

The first test deals with Spike protein of authentic SARS-CoV-2/MT020880.1 (live virus) (SARS-CoV-2, UniProt P0DTC2 14-1273). The test is described as follows: cell-based or functional assay.
Turning to B1, the “IC50 (ng/mL), immunofluorescence neutralization assay” value was 260 ng/mL. Turning to B2, the “IC50 (ng/mL), immunofluorescence neutralization assay” value came to 121 ng/mL. The same measure, in the same setting: the figure for B3 is 49.2 ng/mL; for B4 it is 32.8 ng/mL.

A further test has as its target SARS-CoV-2 full length Spike protein, wild type (SARS-CoV-2, UniProt P0DTC2 14-1208).
Assay: not given
As to B5, the “median fluorescence intensity, fold over isotype control” value (“median fluorescence intensity, fold” for short) worked out at 338 fold over isotype. On to B6, for which the “median fluorescence intensity, fold” value was found to be 523 fold over isotype. For the molecule B7, the “median fluorescence intensity, fold” value amounted to 613 fold over isotype. On the same count and under the same terms, next, B8: 991 fold over isotype; B9: 513 fold over isotype. In the case of B10, the “median fluorescence intensity, fold” value stood at 478 fold over isotype. For B11, the “median fluorescence intensity, fold” value was found to be 566 fold over isotype.

A further test shares this target.
Assay: not given
The source holds these as a separate data set.
Consider B12, for which the “median fluorescence, fold over isotype” value was 435 fold over isotype control. On to B13, for which the “median fluorescence, fold over isotype” value was 1090 fold over isotype control. As to B14, the “median fluorescence, fold over isotype” value was found to be 1250 fold over isotype control. Turning to B15, the “median fluorescence, fold over isotype” value was 1190 fold over isotype control.

On to B16, for which the “median fluorescence, fold over isotype” value is 505 fold over isotype control. Same read-out and setting: the figure for B17 is 715 fold over isotype control; for B18 it is 227 fold over isotype control.

A further test concerns the target SARS-CoV-2 Spike protein (wild type) (SARS-CoV-2, UniProt P0DTC2 14-1208). The test is described as follows: SPR (Carterra LSA), mAb coupled to HC30M chip, Spike titrated; Example 4 methods.
For orientation: Kd means the equilibrium constant for the complex coming apart. B19 displayed a Kd of 0.104 nM. In the case of B20, the Kd turned out to be 0.093 nM. In turn, B21 yielded a Kd of 0.092 nM. On to B22, for which binding was put at a Kd of 0.054 nM.

A further test concerns the target Spike protein of SARS-CoV-2 hCoV-19/Canada/ON_ON-VIDO-01-2/202 (live virus) (SARS-CoV-2, UniProt P0DTC2 14-1273). Kind of test: cell-based or functional assay.
Take B2: the “IC50 (µg/mL), plaque reduction neutralization test” value is 0.01 µg/mL.

In the case of B3, the “IC50 (µg/mL), plaque reduction neutralization test” value is 0.0083 µg/mL. Consider B4, for which the “IC50 (µg/mL), plaque reduction neutralization test” value came to 0.0096 µg/mL.
